Reference: a protein production outcome set (Wang et al. 2014)

Assay: label from the status in PepcDB records

Sequence | protein production
MESSGNPESTTFFYYDLQSQPCENQAWVFATLATTVLYCLVFLLSLVGNSLVLWVLVKYESLESLTNIFILNLCLSDLVFACLLPVWISPYHWGWVLGDFLCKLLNMIFSISLYSSIFFLTIMTIHRYLSVVSPLSTLRVPTLRCRVLVTMAVWVASILSSILDTIFHKVLSSGCDYSELTWYLTSVYQHNLFFLLSLGIILFCYVEILRTLFRSRSKRRHCTVKLIFAIVVAYFLSWGPYNFTLFLQTLFRTQIIRSCEAKQQLEYALLICRNLAFSHCCFNPVLYVFVGVKFRTHLKHVLRQFWFCRLQAPSPASIPHSPGAFAYEGASFY | failed
MESTKQEEQGIYAATPPATGLLERLFKLRQHGTTVRTELAAGLTTFITMAYIIFVNPNIMADAGIDHGAAFVATCLAAALGCFLMGLYANWPVGLAPGMGLNAFFTYTVVGTMGYSWQIALGAVFISGVMFMLLTFSRVREWLLNSIPRSLRFAMGAGVGLFLGLIGLKTAGIVVASPATLIKLGHLTSPGPLLAALCFLMIAVLEYRRVFGGILISILSVTLVGWALGLVQYGGVFSAPPSLAPTFLAMDIAGAFNVTMISVILAFLFVHMFDTAGTLMGVAQRAHLVKEDGRIENLSKAMKADSASSVFGGMLGVPPVTSYVESAAGVAAGGRTGLTAVVVGVLFVAAMFFAPLAGMIPAFATAGALIYVAMLMMGGMAHIDWDEHTETIPAIVTVIMMPLTFSVADGIALGFITYVAMKVLTGKHREVSASLYALFVIFVAKFIFL | failed
MESYDIEGSNQNYVYINVNRWTSTEYPQNTFVYEVLRTPIGSSLESGPEIVKVGVRSTKVASKDITVTLDIDNCASIGEFSSFPDGVKVTLDKKELVIPAGSMLSSDSVTIEIEDGKWSEFVNTSYLLPLKVTSVSNAALSETHSSAYLAVSTSFTNCVPGATSVEGTLISDRSAWTATNNGVDVGTTLFDGNTRTYPSQDASSTVIVNLNGVYQNITGIRLQYYSRNYSLSSAAVYTSETGGEDYEYQGNVTFSRATPQYIRFYGAVSARYVKLELLPYSSGYGIVLSEFDMYQNELEHHHHHH | not failed
METKILSNATHKCVLVIDNAQPTGIVANIASVLSMTLGCRVSNIVSHDVYDKQGERHLGITQLPIPILGASQEKIKELRNYFHSLEIEDLVLVDFSTIAQQSRTYDEYEREMYSANEDDLHYVGIGICAEKKAINKATGSLSLIRLEHHHHHH | failed
METLILTQEEVESLISMDEAMNAVEEAFRLYALGKAQMPPKVYLEFEKGDLRAMPAHLMGYAGLKWVNSHPGNPDKGLPTVMALMILNSPETGFPLAVMDATYTTSLRTGAAGGIAAKYLARKNSSVFGFIGCGTQAYFQLEALRRVFDIGEVKAYDVREKAAKKFVSYCEDRGISASVQPAEEASRCDVLVTTTPSRKPVVKAEWVEEGTHINAIGADGPGKQELDVEILKKAKIVVDDLEQAKHGGEINVAVSKGVIGVEDVHATIGEVIAGLKDGRESDEEITIFDSTGLAIQDVAVAKVVYENALSKNVGSKIKFFRI | not failed
METLSVGHKIKTLRQSLGLSQRDLAEGICTQALISHIEKNKTTPTVDVFFNIAKKLGAPADYFLETHDNSLDYILEVQYQIRKQVQEHNYEEALNIIKTERKNPIFNNSKYLQFLLWHEAICEYSLNKRYNEAVEAIEEALKLTHKEGNSYSEREIEILISLANFHDSEKKYDLSTKIYQDINDSLKALSYLSDRKIQLRFLFNYSLNRNNVKRYKEAIDLCNKGIILCKQHGFLYSFGEFHYQKGQNLIDLGRKKEALKFLEKAKMIFDIQDNELFANIADKEIKKLQKSLEMTVS | failed
METRARYVLIGIFTLASILATLGFLLWLAKVQLDRTYAEYDILFTSVEGLGRASPVRYNGVDVGEVLNIAVDAEDPSLVRVRIQLAATTPVRTDTKAQVASQGVTGVSYVSLSGGAAPEPLTAEGDQWPPVIPSERSAVQALTADAPTLLAEAIALLKDIQTFTGPENRAAVESILTNADASVQNIAAITRDAAEATSRLNDFTARLDAMADRADVALASLETALEEGKGAAASARDTFEAVNRVVDRDVPPMIAQIRSAVSGIERSVAGIRNFADNGLPQYATLAAETRRTVTNLNSLIAQISRDPARFFLGSQTPSYRR | failed
METSKKLVIVAVLSITLILTYAYLISIIEGVDYFTALYFSVITITTTGYGDFTPKTFLGRTLTVVYLCVGVGIVMYLFSLIAEFIVEGKFEEFVRLKKMKNKIKTLKDHYIICGYGRLGKVVGEKFIEENIPFIAIDINEDVLKEEYEKYPDKFLYIVGDAKKEEVLKKAKIDKAKGLIATLPSDADNVFLTLTARELNPNILITAKADEKEAIRKLKIAGANRVVSPYLIGGLRMAEVSVRPGILDFLSTFIKIAKDEYEEDIELRKFVIEKDSELAYKSLKDANIRGKTGATILGIRREKEFCINPYPEFILKPGDVIYAFGTEENLKYLENLVKKKKKKL | failed
METVRPMVVAPKGNKLRRKFAKVLNIHKLTGVAPEGEMKKIKFDSKTAKLSESFYKLEEEYERSQGLEALLAKLFATVSSIKAAYAQLQHSQSPYDSIGIQKADNLVVAELKTLSELKQCFMKKQVDPNPERTLVLAEIQELRSLLKTYEIMGKKLESQYKLKDSEIIFLREKLDESMKQNKLTEKRLNQSGQLCNPLDNLHLSALNPTHFVTYLHHTVKSTRGFVKLMIEQMKLAGWDISSAANSIHPGVFYYKQDHKCFTFEHFVSNVMFEAFHLPYFSTSSESRSYKKKKQSNADREMFFERFKELRSMKAKDYLTARPKSRFARFCRAKYLQLIHPKMEQAFFGHLHLRNQVSAGEFPETSLFSGFLEMAKRIWLLHCLALSFEREAEIFRVPKGCRFSEVYMKSVAEEAFFPAAESSPESEPRVAFTVVPGFRIGKTSIQCEVYLSLS | failed
MEVKQGLTLFARKQDMKSVWEITGSNIDLVCIGNFCRSLKDLSSRGGTDASTNTCMLPWQYSLQKPLLGVSYLNSDGSSQSTPHGSNGLVKRGATYIVSDDLTICVKKKFDVNLDDIFEHEINIGKTHSLIRDIHCLDYGFRELSFRETTLKHQSHALCGAD | failed
MEVSHVTLEPNKDSRPAVLTIGKFDGVHLGHQTILNTALSIKKENEILTAISFSPHPLWALKQIEIYREMLTPRMEKERWLAHYGVDHLIETAFTPRYAETTPEEFVTDHLSNLQLSHIIVGSEFNFGKGRDSDVDLLRDLCKPYGIGVTSVPVIETNQTKISSTNIRAFIRRGHFLEAEQLLGHP | failed
MEWGISLQTKWSLSEYENPKRYDIENKSLSDFPFLLSWAQKLHIQNEWILDIACGTGRVTIPFIENGYQMIGVDIHEGMLAEAKKKTTDCKKVKWLQQDCLQLSMNEAIPFAFMVGHGFQHFLTNTDQNKLLTSIHHVLAENGIFIFDTRFPSKEELIQPSTEEYWTTISDEKGRECDLYTEMTYDLIQQIQHYITIRKFYDDDALVEELKTTIDLRYTYPQELERLLVANGFELLHIYNDWEGNELGEDCYSMVVVCRKK | failed
MEYLFLRRKRTTATSERQKTLLFKAAERQWKEEFAGKETDIRKVDCNIYKGILYQLEIRQVFLDTSLSLKKLSALLETNQTYLSNVVNKYFGCNLKELVNTYRVEYAKELLCSRRCALTELPCSCGFASKSAFYSAFSRIVGVSPLSYQTQERRRHHLQAVNLEHHHHHH | failed
MEYLIYSLIAVIILTVGLNNIFKKQSKYFYMLATLISVVVTSYEIFKIWTGFKLEGIIFVLERSFMKGFVSTALFILVMFAGALSKKWGITKKLLRVRAEMAILASILILPHFIIYTYKFLVRLFSGKPLSILYISFIIVGLIAFIIMIPLFITSFKKVRVTMSPSKWKMVQRWAYPFYFLVYVHIILILFNKKVFNLNAVIIYTVIFLGYFILRICNNKKAIK | failed
MEYNVQDMIFQFIGGLGIFLFGIKYMGDGLQQAAGDRLRDILDRFTTNPLMGVLAGMLVTVLIQSSSGTTALTVGLVSAGFMTLRQAIGVIMGANIGTTVTAFIIGIKIGEYALPVMAVGAILLFFFKNKKVHSVGQVVFGFGMLFFGLELMSAGMKPLRSLESFQELTVSMSDNPILGIVVGTVFTLIVQSSSATIGILQELFGQGAIDLQAALPVLFGDNIGTTITAVLAAIGTSIAARRAALVHVIFNIIGTIIFTILLIPFTSLIQYFQTSLNLNPEMTIAFAHGTFNVTNTIIQFPFIAVLAWIVTKIIRGEDAAIDFKPQHLNPIFIEQSPAIALTEAQKEIIRMAEFSLHGLKEANQFLNTQDKKHANMATQLEGAINNLDKKITEYLVLLSEKPLSPTDSEKHSVLAGVVGDIERVGDHVENLVELVDFQISNRVSLSDEALAELNEMLELTISTLQDSVEALTNFDTELAQTVIAKERKIDQMERVLRKRHVLRLNERSCSGDASIIFVDMVSNLERIGDHAVNIADGVLGEQGKINLKQSL | failed
MEYQLSQAGNKGKVLILKVTGIFFVALAILGVVLPILPTTPFLLVAAACFAKSSPTMQRKLLANKTFGPLIHDWQKYRSIPRKAKRIALLTMILSVCWSAFMLQSVMLTALVVALVIGPFIFLLRLPESK | failed
MFACMGVLVKLAAAFFSNTELVFYRSLVGVITTFLVMRAYGMPLVTEHWKSHCWRGLSGLGGVLLFFYCILQLPLATAISLNNTWPLFLAFLAMILLKEEFSWLLAGALVVGFIGVIFLLRPTLAEGQWYLALIGIGSGLFAGIAHFHVRQLSELGESDWLTVFYFTLVCTVATGLWLTFTAFSAVSLQSLTLALGIGVTATLAQLAISRAHRGSNILIVGVLSYSSVLFAGLMDLFFWDARLPVSAWVGMGLIILGGLLSIRGIPVRNSSIVTLDD | failed
MFAFPRLRFVLVGTQHPGNIGAAARAMKTMGISRLVLVAPECQLDEHAYRRSAGAEDVLEAASVHTVLADAVADCTFVLGCTARTRRVAFEELRPAAAASQILTNINAAGEVALLFGRERTGLTNEELQLCHVAVHIPADPLFSSLNLAAAVQILAYEIRLASLDAPSAPLHSTSGFRKTPASHAQLEGLFGQFKQTLDEIDFHKGRAPESAMRKLRRLFAKAELTQQEIRLLRGVLSDVQRIVMLKRQRDT | failed
MFAIRRRCRPRPGQFQHGWSGLPTHTVPQAGSIAPIGRVRPSSVGNVRPTPECNVLPSFGRSSTNPSFPMEPIEDLDVLAEDEVRQREADGEVDEDLDRVKHGYDATAGDKQVYIETYGCQMNVNDSGIVASVLEESGYGLTRDQAAADVVLLNTCAIRENAERKIRARLSMLRSEKEKRDGELMLGVLGCMAERLREKLLEQEDLVDVVVGPDAYRDLPQLLYEADATGQAAVNVELSKQETYEDIQPVRYDSNGVSAYVSIMRGCDNMCTFCVVPFTRGREESRPVTTILSEVARLAEEGYKEVTLLGQNVNSYHYTDADGTSVSFAELVDRVSRVSPEMRVRYSTSHPKDCTDDLLKVHRDRPNVCNYIHLPVQHGNTEVLDRMRRTYTREEYLALTERAKELCPGVSLSTDLIAGFCGETEAQHEDTLSLMEEVRYDHAYMFKYSERPQTYAARKYEDDVPEDTKQRRLEEIIELQNQHAKESNEAEVGRVHTVLVEGPSKKSDAQFFGRTDTNKGVVFDREDYEKGDYVRVRIEDCTSSTLLGTAIEKTTLEAAARTDSITTSPAVA | failed
MFAPQGLAQFIKVNVTLENGEPVFIYTDANGQVCQGDITVTQAGTITYLLNDQTLKGLKFVGVGFVTPFDGIIDAVTISSDGMLVQLVDLDKTPGTTKFQFVLSNTANTLLVLSPDPQIINRPQN | not failed
MFARTAIAPPFAAMAAGRIPNTHDSDMAEARPDSLTRSRAAKPAGEGAAFSPLYRQIKELLVQSLDRGEWKPGELIPSEIDLAARFQVSQGTVRKAVDELAAEHLLLRRQGKGTFVATHHEARVRYRFLRLAPDEEGEGGRAESRILECRRLRAPAEIARALELRAGETVVTIRRQLSMNHMPTVIDDLWLPGTHFRGLTLELLTASKAPLYGLFESEFGVSMVRADEKLRAVAASPEIAPLLGVEPGRPLLQVDRISYTYGDRPMEVRRGLYLTDHYHYRNSLN | failed
MFAYSARLFLRPLWSDDLGVLLDLLDTASSRSGLLDSPDNDVTRYLRDNAARLIHENDVTRPHSGIFLRDGKEPRLIGITALAGKEAHFFCWIAPAFRGQGFATEASRLMLHFADEALRLPSLTAAYDHADAAAEKLLTKLGFSE | failed
